Assays:
Test in all cases: BLI
[1] = biological target: 6His-PpBRCA2-Cter (amino acids 251 to 391) (Physcomitrium patens)
[2] = biological target: biotinylated PpBRCA2-BRC1 peptide (Physcomitrium patens)
[3] = biological target: biotinylated PpBRCA2-BRC2 peptide (Physcomitrium patens)
[4] = biological target: biotinylated PpBRCA2-BRC4 peptide (Physcomitrium patens)

## recombinant PpRAD51-2, tag-free (natural protein)
[1]
  Kd: 4.3 nM
[2]
  Kd: 400 nM
[3]
  Kd: 800 nM
[4]
  Kd: 400 nM

— paper doi:10.1101/2025.03.19.644124
